From article PMC5771576
Where two headings read alike, the source gives them in different places.

Assays:
[1] = molecular target: T1, Cys14 (UniProt position 14, AANWKCNGSQQ); conditions: cited from earlier work
[2] = molecular target: T1, Cys14; assay: chemical modification; conditions: not stated for the 1 min MMTS incubation (activity assay at 25°C); 100 mM TEA, 10 mM EDTA; ligand-free folded enzyme, 250 ug/mL
[3] = molecular target: T2, Cys14 (UniProt position 15, AANWKCNGSES); assay: chemical modification; conditions: not stated for the 1 min MMTS incubation (activity assay at 25°C); 100 mM TEA, 10 mM EDTA; ligand-free folded enzyme, 250 ug/mL
[4] = molecular target: T2, Cys14; conditions: cited from earlier work

Row | Substance | pKa [1] | pKa [2] | pKa [3] | pKa [4]
1 | Triosephosphate isomerase (WT TbTIM) (Trypanosoma brucei) | 10.53 | 10.56 ± 0.22 | – | –
2 | Triosephosphate isomerase triple mutant TbTIM: F28L, A100L, A115Q (Trypanosoma brucei; F28L;A100L;A115Q) | – | 9.23 ± 0.03 | – | –
3 | Triosephosphate isomerase triple mutant TcTIM: L28F, L100A, Q115A (Trypanosoma cruzi; L28F;L100A;Q115A) | – | – | 10.69 ± 0.01 | –
4 | Triosephosphate isomerase (WT TcTIM) (Trypanosoma cruzi) | – | – | 9.24 ± 0.04 | 9.27
